*1 amine or outer side, *2 acyl side, *3 side chain or, on linkers, in order; H or OH if unused. Where no end group is shown, it is not given here. Suc = O=C(CCC(=O)[*:2])[*:1]
Experiments:
[1] = target: T1, ETB receptors (Homo sapiens, UniProt P24530)
T1 sequence (P24530 27-442): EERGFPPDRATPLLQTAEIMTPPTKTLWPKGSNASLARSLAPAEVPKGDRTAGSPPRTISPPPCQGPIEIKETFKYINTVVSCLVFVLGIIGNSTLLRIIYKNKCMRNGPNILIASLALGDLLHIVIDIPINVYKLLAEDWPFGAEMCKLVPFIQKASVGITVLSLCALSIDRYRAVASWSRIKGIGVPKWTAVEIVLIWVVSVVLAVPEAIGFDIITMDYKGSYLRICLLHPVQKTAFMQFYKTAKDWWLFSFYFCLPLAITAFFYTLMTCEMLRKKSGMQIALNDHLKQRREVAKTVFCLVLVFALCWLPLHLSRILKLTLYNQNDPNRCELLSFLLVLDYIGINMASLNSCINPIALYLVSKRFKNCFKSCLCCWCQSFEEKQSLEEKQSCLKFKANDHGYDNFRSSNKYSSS

[2] = target: T1, ETB receptors; settings: cited from earlier work
[3] = target: T2, ETA receptors (Homo sapiens, UniProt P25101); settings: cited from earlier work
T2 sequence (P25101 21-427): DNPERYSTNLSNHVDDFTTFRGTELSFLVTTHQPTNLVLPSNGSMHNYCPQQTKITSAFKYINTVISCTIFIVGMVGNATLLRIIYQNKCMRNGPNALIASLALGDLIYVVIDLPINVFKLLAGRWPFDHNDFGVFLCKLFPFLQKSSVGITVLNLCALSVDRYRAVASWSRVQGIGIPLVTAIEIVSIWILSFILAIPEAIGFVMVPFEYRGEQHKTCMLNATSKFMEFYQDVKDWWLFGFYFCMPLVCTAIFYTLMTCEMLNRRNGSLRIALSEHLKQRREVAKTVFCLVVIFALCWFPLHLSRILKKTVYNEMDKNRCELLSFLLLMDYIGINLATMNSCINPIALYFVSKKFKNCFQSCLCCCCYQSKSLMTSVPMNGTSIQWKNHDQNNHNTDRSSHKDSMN

For “analog of ET-1, Suc-Asp-Glu-Glu-Ala-Val-Tyr-Phe-Ala-His-Leu-Asp-Ile-Ile-Trp; potent and specific agonist for the ETB receptors (Suc-DEEAVYFAHLDIIW) [IRL-1620, N-Succinyl-[Glu^9, Ala^11,15] endothelin 1]”, the “selectivity for ETB over ETA receptors” value [1] is listed as “approximately 120,000 times”, the Ki [2] is listed as 0.016 nM and the Ki [3] is listed as 1900 nM.

Source: US12629406B2, “Alterations in endothelin receptors following hemorrhage and resuscitation by centhaquin” (MIDWESTERN UNIVERSITY, priority 2018, dated 2026)
